The text below walks through data of article PMC12687424, “Penetrant PKCβ mutation in ATLL displays a mixed gain-of-function” (Biochemical Journal, 2025).

FAM = fluorescein label

The target of test [1] is T1, WT PKCβII catalytic domain (UniProt P05771-2 321-673, primed (phosphorylated) at the three PKC priming sites (T-loop, turn motif, hydrophobic motif)).
T1 construct: Protein kinase C beta, isoform PKCβII, catalytic domain released by TEV cleavage from GST-(3C)-PKCβII that carries a TEV site at position 321; Plasmids for WT PKCβI and PKCβII came from the laboratory archive; also called protein kinase C beta II catalytic domain; PKCβII kinase domain; source: SF21 cells (baculovirus), purified (Glutathione-Sepharose, His-TEV cleavage, Superdex 200); not shown: …
T1 sequence (P05771 other isoform, or with tags, fused parts or gaps): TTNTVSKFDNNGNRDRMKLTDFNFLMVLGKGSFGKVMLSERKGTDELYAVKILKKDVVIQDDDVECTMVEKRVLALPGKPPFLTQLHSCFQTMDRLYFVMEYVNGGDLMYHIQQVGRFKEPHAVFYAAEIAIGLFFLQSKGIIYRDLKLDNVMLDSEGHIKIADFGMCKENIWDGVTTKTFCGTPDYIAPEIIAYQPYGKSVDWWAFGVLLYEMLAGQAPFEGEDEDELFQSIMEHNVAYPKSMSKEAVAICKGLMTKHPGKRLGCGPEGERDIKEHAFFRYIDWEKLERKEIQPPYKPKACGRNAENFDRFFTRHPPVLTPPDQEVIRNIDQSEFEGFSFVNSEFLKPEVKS
Kind of test: fluorescence polarisation; PKCβII catalytic domain titrated into 280 nM fluorescein-PSS peptide in a cuvette; 20°C; 50 mM Tris-HCl pH 7.5, 150 mM NaCl, 5 mM MgCl2, 0.05% Brij-35, 500 μM AMP-PCP, 5% glycerol; anisotropy fitted assuming a 1:1 interaction. The settings on record: both partners purified. (In fluorescence polarisation assays a small probe gives low polarisation when free and higher when bound to something large.)

The target in test [2] is T2, D427N PKCβII catalytic domain (UniProt P05771-2 321-673, D427N, phosphorylated at T500 and at the other two PKC priming sites in the C-terminal tail).
T2 construct: D427N is a somatic mutation found in ATLL patients; source: SF21 cells (baculovirus), purified (Glutathione-Sepharose, His-TEV cleavage, Superdex 200); not shown: GST, N-terminal, cleaved
T2 sequence (P05771 other isoform, or with tags, fused parts or gaps D427N | D427N | D427N D427N): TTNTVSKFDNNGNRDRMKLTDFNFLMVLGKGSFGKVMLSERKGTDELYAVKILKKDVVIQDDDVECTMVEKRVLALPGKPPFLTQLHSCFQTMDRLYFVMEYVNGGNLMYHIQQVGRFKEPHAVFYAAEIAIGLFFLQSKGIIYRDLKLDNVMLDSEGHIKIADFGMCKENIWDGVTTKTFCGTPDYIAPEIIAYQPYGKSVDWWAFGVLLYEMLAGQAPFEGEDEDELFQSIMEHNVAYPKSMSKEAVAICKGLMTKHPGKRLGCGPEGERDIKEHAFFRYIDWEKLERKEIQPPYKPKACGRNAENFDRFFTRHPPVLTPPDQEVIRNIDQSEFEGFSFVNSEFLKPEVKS
The description is as above. The settings on record: both partners purified.

The Kd is the constant that tells how readily two partners part at equilibrium. A high value points to lower affinity.

B1: Fluorescein-PSS peptide (peptide)
peptide: {FAM}-ESTVRFARKGSLRQKNVH-NH2
notes: source: synthetic peptide (HPLC purified to >95%)
Consider B1, for which the Kd in test [1] was found to be 35.3 µM; in test [2], 72 µM.
